The source of these data is article PMC10063554.

pEC50: −log10 of the molar value.

Broadly, the pEC50 is the EC50 on a negative log10 scale, so that one unit is a factor of ten.

Experiment [1] deals with evolved PTH1R variant P34_05 (human) (UniProt Q03431). In words: AlphaScreen or HTRF; binding of 40 nM M-PTH(1–14) to membrane fractions supplemented with increasing concentrations of mini-Gs; data relative to PTH1R without mini-Gs; EC50 of mini-Gs read through ligand occupancy, apparent. Background: Alpha assays give light when donor and acceptor beads are brought close together.

Experiment [2] addresses evolved PTH1R variant P34_13 (human) (UniProt Q03431). The description is as above.
Experiment [3] deals with SNAP-tagged NTR1-R167L (rat) (UniProt P20789). The experiment in a line: AlphaScreen or HTRF; whole HEK293T cells with SNAP-Lumi4-Tb-labelled NTR1; 2 nM HL488-NT(8–13) tracer with a range of unlabeled NT(8–13); 4 h on ice; 20 mM HEPES pH 7.5, 100 mM NaCl, 3 mM MgCl2, 0.02% BSA.
Chain of UniProt P20789 (P20789 43-424 R167L): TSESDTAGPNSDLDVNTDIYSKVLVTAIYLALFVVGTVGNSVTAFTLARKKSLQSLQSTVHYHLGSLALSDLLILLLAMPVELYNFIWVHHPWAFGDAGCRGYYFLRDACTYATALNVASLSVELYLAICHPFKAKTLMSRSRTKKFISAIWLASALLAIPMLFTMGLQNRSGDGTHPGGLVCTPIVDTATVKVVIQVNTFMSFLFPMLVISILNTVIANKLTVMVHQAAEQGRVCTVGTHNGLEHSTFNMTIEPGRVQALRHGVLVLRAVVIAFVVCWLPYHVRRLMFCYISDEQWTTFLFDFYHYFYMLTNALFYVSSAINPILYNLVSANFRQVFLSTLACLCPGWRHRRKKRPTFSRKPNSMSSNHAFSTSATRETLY

Consider Mini-Gs 393, for which the negative-log EC50 (pEC50) is 6.55 in experiment [1] and 6.42 in experiment [2].

In experiment [3], Neurotensin 8–13 (peptide) came in with a fold increase in affinity against wild-type NTR1 of 3 fold.
